Measured values taken from paper PMC5465497.

Experiments:
[1] = molecular target: BEAT 2/3 (A): CH2 γ1 - BEAT CH3 (A) γ3; (B): CH2 γ1 - BEAT CH3 (B) γ1 (human); assay: SPR; antibody covalently coupled onto a CM5 sensor chip, FcRn injected; HBS-EP+ adjusted to pH 6; room temperature; steady-state fitting model; regeneration with HBS-EP+ pH 7.4
[2] = molecular target: BEAT 2/3 (A): CH2 γ1 - BEAT CH3 (A) γ3; (B): CH2 γ1 - BEAT CH3 (B) γ1 D84.4Q (human); assay: as above
[3] = molecular target: BEAT 2/3 (A): CH2 γ3 - BEAT CH3 (A) γ3; (B): CH2 γ1 - BEAT CH3 (B) γ1 (human); assay: as above
[4] = molecular target: BEAT 2/3 (A): CH2 γ3 - BEAT CH3 (A) γ3; (B): CH2 γ1 - BEAT CH3 (B) γ1 D84.4Q (human); assay: as above
Herceptin IgG (human) [5] = assay: as above
Herceptin IgG (human) [6] = assay: SPR; antibody captured via Protein A, FcγR1a injected; room temperature; 1:1 Langmuir model with Rmax set to local; regeneration with 10 mM glycine pH 1.5
Herceptin IgG (human) [7] = assay: SPR; antibody covalently coupled onto a CM5 sensor chip, Fc receptor extracellular domain injected; HBS-EP+ running buffer; room temperature; steady-state fitting model; no regeneration
[8] = molecular target: BEAT 2/3 (A): CH2 γ1 - BEAT CH3 (A) γ3; (B): CH2 γ1 - BEAT CH3 (B) γ1 (human); assay: as above
[9] = molecular target: BEAT 2/3 (A): CH2 γ1 - BEAT CH3 (A) γ3; (B): CH2 γ1 - BEAT CH3 (B) γ1 D84.4Q (human); assay: as above
[10] = molecular target: BEAT 2/3 (A): CH2 γ3 - BEAT CH3 (A) γ3; (B): CH2 γ1 - BEAT CH3 (B) γ1 D84.4Q (human); assay: as above
[11] = molecular target: KiH (knobs-into-holes) Fc-like chain, second engineered CH3 domain (human); assay: non-reduced SDS-PAGE with scanning densitometry of co-expressed chains (heterodimerization assay); two Fc-like chains co-transfected at a 1:1 ratio into HEK293-EBNA cells; Protein A-purified preparation; 4-12% gel, Coomassie staining; bands below the 49-kDa marker excluded
[12] = molecular target: MI (CH3) AG/GA Fc-like chain, GA domain (IgG1 CH3 with positions 85.1 and 86 and their set exchanged for IgA CH3 residues) (human); assay: as above
[13] = molecular target: SEED Fc-like chain, the other SEED CH3 domain (human); assay: as above

FcRn extracellular domain (with beta-2-microglobulin) (from UniProt P55899 24-297; P61769 21-119) (receptor)
Kd [1]: 708 nM | Kd [2]: 686 nM | Kd [3]: 543 nM | Kd [4]: 577 nM | Kd (Herceptin IgG (human) [5]): 622 nM

FcγR1a extracellular domain (from UniProt P12314 16-292) (receptor)
Kd (Herceptin IgG (human) [6]): 0.138 nM

FcγR2a extracellular domain, variant H167 (from UniProt P12318 34-217) (receptor)
Kd (Herceptin IgG (human) [7]): 2000 nM

FcγR2b extracellular domain (from UniProt P31994 43-217) (receptor)
Kd (Herceptin IgG (human) [7]): 4270 nM

FcγR3a extracellular domain, variant V176 (from UniProt P08637 17-208) (receptor)
Kd [8]: 206 nM | Kd [9]: 347 nM | Kd [10]: 238 nM | Kd (Herceptin IgG (human) [7]): 267 nM

KiH (knobs-into-holes) Fc-like chain, first engineered CH3 domain (domain or fragment)
heterodimer content [11]: 67%

MI (CH3) AG/GA Fc-like chain, AG domain with Trp 81 back mutated to threonine (domain or fragment)
loss in HD rate against the heterodimer with Trp 81 [12]: 4%

SEED Fc-like chain with Trp 81 back mutated to threonine (domain or fragment)
loss in HD rate against the heterodimer with Trp 81 [13]: 20%

SEED Fc-like chain, the SEED CH3 domain that has Trp 81 (domain or fragment)
heterodimer content [13]: 83%
